Measured values from the RNAGym collection of RNA variant scans (doi:10.1101/gr.219683.116).

B1: mRNA-splicing (parent)
chain: AGUUGCUGCUGGGAGCUCCAGCACAGUGAAAUGGACAGAAGGGCAGAGCAA

Variants of: B1
Assay: exon inclusion enrichment index; higher = more inclusion; WT1 exon 5 minigene, HEK293

| Variant | exon inclusion enrichment index |
| --- | --- |
| G5C C6G U7C U10C A37U | 3.22 |
| G5C C6G U7C U10C A37U G38A | 1.78 |
| G5C C6G U7C U10C A37U G38C | 2.27 |
| G5C C6G U7C U10C A37U G38U | 1.52 |
| G5C C6G U7C U10C A39C | 1.45 |
| G5C C6G U7C U10C A39C A40C | 3.63 |
| G5C C6G U7C U10C A39C A40G | 3.52 |
| G5C C6G U7C U10C A39C A40U | 1.72 |
| G5C C6G U7C U10C A39G | 2.45 |
| G5C C6G U7C U10C A39G A40C | 3.86 |
| G5C C6G U7C U10C A39G A40G | 0.367 |
| G5C C6G U7C U10C A39G A40U | 0.671 |
| G5C C6G U7C U10C A39U | 0.26 |
| G5C C6G U7C U10C A39U A40C | 3.55 |
| G5C C6G U7C U10C A39U A40G | 1.59 |
| G5C C6G U7C U10C A39U A40U | 1.88 |
| G5C C6G U7C U10C A40C | 3.66 |
| G5C C6G U7C U10C A40C G41A | 1.9 |
| G5C C6G U7C U10C A40C G41C | 3.53 |
| G5C C6G U7C U10C A40C G41U | 1.83 |
| G5C C6G U7C U10C A40G | 3.16 |
| G5C C6G U7C U10C A40G G41A | 1.99 |
| G5C C6G U7C U10C A40G G41C | 3.83 |
| G5C C6G U7C U10C A40G G41U | 3.4 |

| Variant | exon inclusion enrichment index |
| --- | --- |
| G5C C6G U7C U10C A40U | 2.71 |
| G5C C6G U7C U10C A40U G41A | 0.26 |
| G5C C6G U7C U10C A40U G41C | 3.11 |
| G5C C6G U7C U10C A40U G41U | 2.15 |
| G5C C6G U7C U10C A45C | 3.17 |
| G5C C6G U7C U10C A45C G46A | 2.12 |
| G5C C6G U7C U10C A45C G46C | 2.31 |
| G5C C6G U7C U10C A45C G46U | 1.87 |
| G5C C6G U7C U10C A45G | 5.32 |
| G5C C6G U7C U10C A45G G46A | 6.29 |
| G5C C6G U7C U10C A45G G46C | 3.05 |
| G5C C6G U7C U10C A45G G46U | 3.14 |
| G5C C6G U7C U10C A45U | 4.56 |
| G5C C6G U7C U10C A45U G46A | 2.95 |
| G5C C6G U7C U10C A45U G46C | 2.33 |
| G5C C6G U7C U10C A45U G46U | 1.75 |
| G5C C6G U7C U10C A47C | 3.06 |
| G5C C6G U7C U10C A47C G48A | 1.78 |
| G5C C6G U7C U10C A47C G48C | 2.99 |
| G5C C6G U7C U10C A47C G48U | 2.62 |
| G5C C6G U7C U10C A47G | 0.871 |
| G5C C6G U7C U10C A47G G48A | 2.55 |
| G5C C6G U7C U10C A47G G48C | 2.32 |
| G5C C6G U7C U10C A47G G48U | 0.733 |

| Variant | exon inclusion enrichment index |
| --- | --- |
| G5C C6G U7C U10C A47U | 3.3 |
| G5C C6G U7C U10C A47U G48A | 3.03 |
| G5C C6G U7C U10C A47U G48C | 2.42 |
| G5C C6G U7C U10C A47U G48U | 3.16 |
| G5C C6G U7C U10C C16A | 4.33 |
| G5C C6G U7C U10C C16A U17A | 4.02 |
| G5C C6G U7C U10C C16A U17C | 4.04 |
| G5C C6G U7C U10C C16A U17G | 3.25 |
| G5C C6G U7C U10C C16G | 2.97 |
| G5C C6G U7C U10C C16G U17A | 4.71 |
| G5C C6G U7C U10C C16G U17C | 2.62 |
| G5C C6G U7C U10C C16G U17G | 1.27 |
| G5C C6G U7C U10C C16U | 4.22 |
| G5C C6G U7C U10C C16U U17A | 3.78 |
| G5C C6G U7C U10C C16U U17C | 2.87 |
| G5C C6G U7C U10C C16U U17G | 3.07 |
| G5C C6G U7C U10C C18A | 3.25 |
| G5C C6G U7C U10C C18A C19A | 1.63 |
| G5C C6G U7C U10C C18A C19G | 1.5 |
| G5C C6G U7C U10C C18A C19U | 0.321 |
| G5C C6G U7C U10C C18G | 3.71 |
| G5C C6G U7C U10C C18G C19A | 4.24 |
| G5C C6G U7C U10C C18G C19G | 4.32 |
| G5C C6G U7C U10C C18G C19U | 1.44 |

| Variant | exon inclusion enrichment index |
| --- | --- |
| G5C C6G U7C U10C C18U | 3.14 |
| G5C C6G U7C U10C C18U C19A | 0.76 |
| G5C C6G U7C U10C C18U C19G | 2.78 |
| G5C C6G U7C U10C C18U C19U | 0.197 |
| G5C C6G U7C U10C C19A | 2.65 |
| G5C C6G U7C U10C C19A A20C | 2.85 |
| G5C C6G U7C U10C C19A A20G | 0.953 |
| G5C C6G U7C U10C C19A A20U | 1.52 |
| G5C C6G U7C U10C C19G | 3.72 |
| G5C C6G U7C U10C C19G A20C | 2.89 |
| G5C C6G U7C U10C C19G A20G | 2.13 |
| G5C C6G U7C U10C C19G A20U | 3.16 |
| G5C C6G U7C U10C C19U | 0.492 |
| G5C C6G U7C U10C C19U A20C | 3.09 |
| G5C C6G U7C U10C C19U A20G | 1.14 |
| G5C C6G U7C U10C C19U A20U | 1.48 |
| G5C C6G U7C U10C C22A | 3.06 |
| G5C C6G U7C U10C C22A A23C | 3.98 |
| G5C C6G U7C U10C C22A A23G | 3.83 |
| G5C C6G U7C U10C C22A A23U | 2.83 |
| G5C C6G U7C U10C C22G | 3.75 |
| G5C C6G U7C U10C C22G A23C | 2.56 |
| G5C C6G U7C U10C C22G A23G | 2.57 |
| G5C C6G U7C U10C C22G A23U | 1.01 |

| Variant | exon inclusion enrichment index |
| --- | --- |
| G5C C6G U7C U10C C22U | 3.4 |
| G5C C6G U7C U10C C22U A23C | 2.02 |
| G5C C6G U7C U10C C22U A23G | 3.6 |
| G5C C6G U7C U10C C22U A23U | 2.76 |
| G5C C6G U7C U10C C24A | 3.28 |
| G5C C6G U7C U10C C24A A25C | 4.48 |
| G5C C6G U7C U10C C24A A25G | 3.65 |
| G5C C6G U7C U10C C24A A25U | 2.85 |
| G5C C6G U7C U10C C24G | 4.23 |
| G5C C6G U7C U10C C24G A25C | 4.6 |
| G5C C6G U7C U10C C24G A25G | 2.96 |
| G5C C6G U7C U10C C24G A25U | 3.91 |
| G5C C6G U7C U10C C24U | 1.76 |
| G5C C6G U7C U10C C24U A25C | 4.56 |
| G5C C6G U7C U10C C24U A25G | 4.57 |
| G5C C6G U7C U10C C24U A25U | 3.01 |
| G5C C6G U7C U10C C36A | 2.93 |
| G5C C6G U7C U10C C36A A37C | 3.59 |
| G5C C6G U7C U10C C36A A37G | 2.14 |
| G5C C6G U7C U10C C36A A37U | 2.07 |
| G5C C6G U7C U10C C36G | 3.17 |
| G5C C6G U7C U10C C36G A37C | 1.47 |
| G5C C6G U7C U10C C36G A37G | 1.19 |
| G5C C6G U7C U10C C36G A37U | 2.09 |

| Variant | exon inclusion enrichment index |
| --- | --- |
| G5C C6G U7C U10C C36U | 1.33 |
| G5C C6G U7C U10C C36U A37C | 2.78 |
| G5C C6G U7C U10C C36U A37G | 2.77 |
| G5C C6G U7C U10C C36U A37U | 2.2 |
| G5C C6G U7C U10C C44A | 4.17 |
| G5C C6G U7C U10C C44A A45C | 4.3 |
| G5C C6G U7C U10C C44A A45G | 5.42 |
| G5C C6G U7C U10C C44A A45U | 5.86 |
| G5C C6G U7C U10C C44G | 4.42 |
| G5C C6G U7C U10C C44G A45C | 5.06 |
| G5C C6G U7C U10C C44G A45G | 1.17 |
| G5C C6G U7C U10C C44G A45U | 3.36 |
| G5C C6G U7C U10C C44U | 1.47 |
| G5C C6G U7C U10C C44U A45C | 4.13 |
| G5C C6G U7C U10C C44U A45G | 2.53 |
| G5C C6G U7C U10C C44U A45U | 2.84 |
| G5C C6G U7C U10C G11A | 2.79 |
| G5C C6G U7C U10C G11A G12A | 1.91 |
| G5C C6G U7C U10C G11A G12C | 1.51 |
| G5C C6G U7C U10C G11A G12U | 1.83 |
| G5C C6G U7C U10C G11C | 2.92 |
| G5C C6G U7C U10C G11C G12A | 1.1 |
| G5C C6G U7C U10C G11C G12C | 1.04 |
| G5C C6G U7C U10C G11C G12U | 0.699 |

| Variant | exon inclusion enrichment index |
| --- | --- |
| G5C C6G U7C U10C G11U | 3.33 |
| G5C C6G U7C U10C G11U G12A | 1.11 |
| G5C C6G U7C U10C G11U G12C | 1.54 |
| G5C C6G U7C U10C G11U G12U | 1.49 |
| G5C C6G U7C U10C G12A | 2.53 |
| G5C C6G U7C U10C G12A G13A | 1.51 |
| G5C C6G U7C U10C G12A G13C | 1.55 |
| G5C C6G U7C U10C G12A G13U | 0.589 |
| G5C C6G U7C U10C G12C | 0.252 |
| G5C C6G U7C U10C G12C G13A | 0.8 |
| G5C C6G U7C U10C G12C G13C | 0.519 |
| G5C C6G U7C U10C G12C G13U | 0.128 |
| G5C C6G U7C U10C G12U | 1.53 |
| G5C C6G U7C U10C G12U G13A | 0.404 |
| G5C C6G U7C U10C G12U G13C | 0.741 |
| G5C C6G U7C U10C G12U G13U | 0.206 |
| G5C C6G U7C U10C G13A | 3.34 |
| G5C C6G U7C U10C G13A A14C | 3.48 |
| G5C C6G U7C U10C G13A A14G | 3.3 |
| G5C C6G U7C U10C G13A A14U | 2.93 |
| G5C C6G U7C U10C G13C | 1.53 |
| G5C C6G U7C U10C G13C A14C | 1.79 |
| G5C C6G U7C U10C G13C A14G | 1.61 |
